From PMC9408895

Biological target: T1, senescence-suppressed protein phosphatase SSPP (His-SSPP)
T1 chain: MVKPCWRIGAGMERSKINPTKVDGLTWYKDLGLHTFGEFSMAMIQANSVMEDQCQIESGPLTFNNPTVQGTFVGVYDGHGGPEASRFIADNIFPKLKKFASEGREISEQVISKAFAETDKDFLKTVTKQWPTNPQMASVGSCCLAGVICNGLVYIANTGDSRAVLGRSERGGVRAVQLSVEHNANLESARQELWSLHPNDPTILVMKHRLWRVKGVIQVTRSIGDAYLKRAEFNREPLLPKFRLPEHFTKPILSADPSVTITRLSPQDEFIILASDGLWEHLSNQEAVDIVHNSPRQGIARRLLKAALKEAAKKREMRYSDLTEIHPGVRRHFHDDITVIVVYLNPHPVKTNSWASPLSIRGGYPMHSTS
Assay: in vitro pull-down (His-SSPP-bound Ni-NTA beads, anti-GST blot)
Details: chain shown with the change; 20% pull-down, 10% input loaded; parent: 1.00

Binder | ratio to parent
GST-AtSARK-CD, cytoplasmic domain of Arabidopsis thaliana senescence-associated receptor-like kinase AtSARK, wild type, Q8VYT3 Y413F (protein) CWYRKKQRRLLILNLNDKQEEGLQGLGNLRSFTFRELHVYTDGFSSKNILGAGGFGNVYRGKLGDGTMVAVKRLKDINGTSGDSQFRMELEMISLAVHKNLLRLIGYCATSGERLLVYPYMPNGSVASKLKSKPALDWNMRKRIAIGAARGLLFLHEQCDPKIIHRDVKAANILLDECFEAVVGDFGLAKLLNHADSHVTTAVRGTVGHIAPEYLSTGQSSEKTDVFGFGILLLELITGLRALEFGKTVSQKGAMLEWVRKLHEEMKVEELLDRELGTNYDKIEVGEMLQVALLCTQYLPAHRPKMSEVVLMLEGDGLAERWAASHNHSHFYHANISFKTISSLSTTSVSRLDAHCNDPTYQMFGSSAFDDDDDHQPLDSFAMELSGPR | 1.16
GST-AtSARK-CD, cytoplasmic domain of Arabidopsis thaliana senescence-associated receptor-like kinase AtSARK, wild type, Q8VYT3 Y473F (protein) CWYRKKQRRLLILNLNDKQEEGLQGLGNLRSFTFRELHVYTDGFSSKNILGAGGFGNVYRGKLGDGTMVAVKRLKDINGTSGDSQFRMELEMISLAVHKNLLRLIGYCATSGERLLVYPYMPNGSVASKLKSKPALDWNMRKRIAIGAARGLLYLHEQCDPKIIHRDVKAANILLDECFEAVVGDFGLAKLLNHADSHVTTAVRGTVGHIAPEFLSTGQSSEKTDVFGFGILLLELITGLRALEFGKTVSQKGAMLEWVRKLHEEMKVEELLDRELGTNYDKIEVGEMLQVALLCTQYLPAHRPKMSEVVLMLEGDGLAERWAASHNHSHFYHANISFKTISSLSTTSVSRLDAHCNDPTYQMFGSSAFDDDDDHQPLDSFAMELSGPR | 0.96
GST-AtSARK-CD, cytoplasmic domain of Arabidopsis thaliana senescence-associated receptor-like kinase AtSARK, wild type, Q8VYT3 S304D (protein) CWYRKKQRRLLILNLNDKQEEGLQGLGNLRSFTFRELHVYTDGFDSKNILGAGGFGNVYRGKLGDGTMVAVKRLKDINGTSGDSQFRMELEMISLAVHKNLLRLIGYCATSGERLLVYPYMPNGSVASKLKSKPALDWNMRKRIAIGAARGLLYLHEQCDPKIIHRDVKAANILLDECFEAVVGDFGLAKLLNHADSHVTTAVRGTVGHIAPEYLSTGQSSEKTDVFGFGILLLELITGLRALEFGKTVSQKGAMLEWVRKLHEEMKVEELLDRELGTNYDKIEVGEMLQVALLCTQYLPAHRPKMSEVVLMLEGDGLAERWAASHNHSHFYHANISFKTISSLSTTSVSRLDAHCNDPTYQMFGSSAFDDDDDHQPLDSFAMELSGPR | 0.95
GST-AtSARK-CD, cytoplasmic domain of Arabidopsis thaliana senescence-associated receptor-like kinase AtSARK, wild type, Q8VYT3 T465D (protein) CWYRKKQRRLLILNLNDKQEEGLQGLGNLRSFTFRELHVYTDGFSSKNILGAGGFGNVYRGKLGDGTMVAVKRLKDINGTSGDSQFRMELEMISLAVHKNLLRLIGYCATSGERLLVYPYMPNGSVASKLKSKPALDWNMRKRIAIGAARGLLYLHEQCDPKIIHRDVKAANILLDECFEAVVGDFGLAKLLNHADSHVTTAVRGDVGHIAPEYLSTGQSSEKTDVFGFGILLLELITGLRALEFGKTVSQKGAMLEWVRKLHEEMKVEELLDRELGTNYDKIEVGEMLQVALLCTQYLPAHRPKMSEVVLMLEGDGLAERWAASHNHSHFYHANISFKTISSLSTTSVSRLDAHCNDPTYQMFGSSAFDDDDDHQPLDSFAMELSGPR | 0.88
GST-AtSARK-CD, cytoplasmic domain of Arabidopsis thaliana senescence-associated receptor-like kinase AtSARK, wild type, Q8VYT3 S384D (protein) CWYRKKQRRLLILNLNDKQEEGLQGLGNLRSFTFRELHVYTDGFSSKNILGAGGFGNVYRGKLGDGTMVAVKRLKDINGTSGDSQFRMELEMISLAVHKNLLRLIGYCATSGERLLVYPYMPNGDVASKLKSKPALDWNMRKRIAIGAARGLLYLHEQCDPKIIHRDVKAANILLDECFEAVVGDFGLAKLLNHADSHVTTAVRGTVGHIAPEYLSTGQSSEKTDVFGFGILLLELITGLRALEFGKTVSQKGAMLEWVRKLHEEMKVEELLDRELGTNYDKIEVGEMLQVALLCTQYLPAHRPKMSEVVLMLEGDGLAERWAASHNHSHFYHANISFKTISSLSTTSVSRLDAHCNDPTYQMFGSSAFDDDDDHQPLDSFAMELSGPR | 1.04
GST-AtSARK-CD, cytoplasmic domain of Arabidopsis thaliana senescence-associated receptor-like kinase AtSARK, wild type, Q8VYT3 T465A (protein) CWYRKKQRRLLILNLNDKQEEGLQGLGNLRSFTFRELHVYTDGFSSKNILGAGGFGNVYRGKLGDGTMVAVKRLKDINGTSGDSQFRMELEMISLAVHKNLLRLIGYCATSGERLLVYPYMPNGSVASKLKSKPALDWNMRKRIAIGAARGLLYLHEQCDPKIIHRDVKAANILLDECFEAVVGDFGLAKLLNHADSHVTTAVRGAVGHIAPEYLSTGQSSEKTDVFGFGILLLELITGLRALEFGKTVSQKGAMLEWVRKLHEEMKVEELLDRELGTNYDKIEVGEMLQVALLCTQYLPAHRPKMSEVVLMLEGDGLAERWAASHNHSHFYHANISFKTISSLSTTSVSRLDAHCNDPTYQMFGSSAFDDDDDHQPLDSFAMELSGPR | 0.9
GST-AtSARK-CD, cytoplasmic domain of Arabidopsis thaliana senescence-associated receptor-like kinase AtSARK, wild type, Q8VYT3 T326A (protein) CWYRKKQRRLLILNLNDKQEEGLQGLGNLRSFTFRELHVYTDGFSSKNILGAGGFGNVYRGKLGDGAMVAVKRLKDINGTSGDSQFRMELEMISLAVHKNLLRLIGYCATSGERLLVYPYMPNGSVASKLKSKPALDWNMRKRIAIGAARGLLYLHEQCDPKIIHRDVKAANILLDECFEAVVGDFGLAKLLNHADSHVTTAVRGTVGHIAPEYLSTGQSSEKTDVFGFGILLLELITGLRALEFGKTVSQKGAMLEWVRKLHEEMKVEELLDRELGTNYDKIEVGEMLQVALLCTQYLPAHRPKMSEVVLMLEGDGLAERWAASHNHSHFYHANISFKTISSLSTTSVSRLDAHCNDPTYQMFGSSAFDDDDDHQPLDSFAMELSGPR | 0.97
GST-AtSARK-CD, cytoplasmic domain of Arabidopsis thaliana senescence-associated receptor-like kinase AtSARK, wild type, Q8VYT3 Y473E (protein) CWYRKKQRRLLILNLNDKQEEGLQGLGNLRSFTFRELHVYTDGFSSKNILGAGGFGNVYRGKLGDGTMVAVKRLKDINGTSGDSQFRMELEMISLAVHKNLLRLIGYCATSGERLLVYPYMPNGSVASKLKSKPALDWNMRKRIAIGAARGLLYLHEQCDPKIIHRDVKAANILLDECFEAVVGDFGLAKLLNHADSHVTTAVRGTVGHIAPEELSTGQSSEKTDVFGFGILLLELITGLRALEFGKTVSQKGAMLEWVRKLHEEMKVEELLDRELGTNYDKIEVGEMLQVALLCTQYLPAHRPKMSEVVLMLEGDGLAERWAASHNHSHFYHANISFKTISSLSTTSVSRLDAHCNDPTYQMFGSSAFDDDDDHQPLDSFAMELSGPR | 0.98
GST-AtSARK-CD, cytoplasmic domain of Arabidopsis thaliana senescence-associated receptor-like kinase AtSARK, wild type, Q8VYT3 S304A (protein) CWYRKKQRRLLILNLNDKQEEGLQGLGNLRSFTFRELHVYTDGFASKNILGAGGFGNVYRGKLGDGTMVAVKRLKDINGTSGDSQFRMELEMISLAVHKNLLRLIGYCATSGERLLVYPYMPNGSVASKLKSKPALDWNMRKRIAIGAARGLLYLHEQCDPKIIHRDVKAANILLDECFEAVVGDFGLAKLLNHADSHVTTAVRGTVGHIAPEYLSTGQSSEKTDVFGFGILLLELITGLRALEFGKTVSQKGAMLEWVRKLHEEMKVEELLDRELGTNYDKIEVGEMLQVALLCTQYLPAHRPKMSEVVLMLEGDGLAERWAASHNHSHFYHANISFKTISSLSTTSVSRLDAHCNDPTYQMFGSSAFDDDDDHQPLDSFAMELSGPR | 1.08
GST-AtSARK-CD, cytoplasmic domain of Arabidopsis thaliana senescence-associated receptor-like kinase AtSARK, wild type, Q8VYT3 T326D (protein) CWYRKKQRRLLILNLNDKQEEGLQGLGNLRSFTFRELHVYTDGFSSKNILGAGGFGNVYRGKLGDGDMVAVKRLKDINGTSGDSQFRMELEMISLAVHKNLLRLIGYCATSGERLLVYPYMPNGSVASKLKSKPALDWNMRKRIAIGAARGLLYLHEQCDPKIIHRDVKAANILLDECFEAVVGDFGLAKLLNHADSHVTTAVRGTVGHIAPEYLSTGQSSEKTDVFGFGILLLELITGLRALEFGKTVSQKGAMLEWVRKLHEEMKVEELLDRELGTNYDKIEVGEMLQVALLCTQYLPAHRPKMSEVVLMLEGDGLAERWAASHNHSHFYHANISFKTISSLSTTSVSRLDAHCNDPTYQMFGSSAFDDDDDHQPLDSFAMELSGPR | 0.84
GST-AtSARK-CD, cytoplasmic domain of Arabidopsis thaliana senescence-associated receptor-like kinase AtSARK, wild type, Q8VYT3 S384A (protein) CWYRKKQRRLLILNLNDKQEEGLQGLGNLRSFTFRELHVYTDGFSSKNILGAGGFGNVYRGKLGDGTMVAVKRLKDINGTSGDSQFRMELEMISLAVHKNLLRLIGYCATSGERLLVYPYMPNGAVASKLKSKPALDWNMRKRIAIGAARGLLYLHEQCDPKIIHRDVKAANILLDECFEAVVGDFGLAKLLNHADSHVTTAVRGTVGHIAPEYLSTGQSSEKTDVFGFGILLLELITGLRALEFGKTVSQKGAMLEWVRKLHEEMKVEELLDRELGTNYDKIEVGEMLQVALLCTQYLPAHRPKMSEVVLMLEGDGLAERWAASHNHSHFYHANISFKTISSLSTTSVSRLDAHCNDPTYQMFGSSAFDDDDDHQPLDSFAMELSGPR | 0.23
GST-AtSARK-CD, cytoplasmic domain of Arabidopsis thaliana senescence-associated receptor-like kinase AtSARK, wild type, Q8VYT3 Y413E (protein) CWYRKKQRRLLILNLNDKQEEGLQGLGNLRSFTFRELHVYTDGFSSKNILGAGGFGNVYRGKLGDGTMVAVKRLKDINGTSGDSQFRMELEMISLAVHKNLLRLIGYCATSGERLLVYPYMPNGSVASKLKSKPALDWNMRKRIAIGAARGLLELHEQCDPKIIHRDVKAANILLDECFEAVVGDFGLAKLLNHADSHVTTAVRGTVGHIAPEYLSTGQSSEKTDVFGFGILLLELITGLRALEFGKTVSQKGAMLEWVRKLHEEMKVEELLDRELGTNYDKIEVGEMLQVALLCTQYLPAHRPKMSEVVLMLEGDGLAERWAASHNHSHFYHANISFKTISSLSTTSVSRLDAHCNDPTYQMFGSSAFDDDDDHQPLDSFAMELSGPR | 0.12
